By EC50 is commonly meant the midpoint of the concentration-response curve. A lower EC50 goes with higher potency in that assay. In general, Kd refers to the concentration at which binding is half-saturated. Higher therefore signals lower affinity. Broadly, the koff is the first-order rate constant of dissociation. A low value points to a long-lived complex. Broadly, the kon is the second-order rate constant of association. A higher kon goes with faster complex formation.

Positions count from the first letter of the chain named. Like-named read-outs stand apart in the source and are kept apart here.

The target in experiment [1] is T1, dog AGR2 (dog, UniProt O95994 21-175 (human entry), limits assumed).
T1 construct: Whole entry as named
T1 chain: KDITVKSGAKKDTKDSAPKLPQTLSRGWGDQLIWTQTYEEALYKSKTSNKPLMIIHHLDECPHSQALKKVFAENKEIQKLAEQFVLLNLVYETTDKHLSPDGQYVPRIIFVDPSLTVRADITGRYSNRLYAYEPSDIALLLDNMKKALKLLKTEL
In words: ELISA, antigen coated at 1 µg/mL, antibody titrated.

Experiment [2] has as its target T2, macaque AGR2 (macaque (rhesus monkey), UniProt O95994 21-175 (human entry), limits assumed).
T2 construct: Whole entry as named; also called rhesus monkey AGR2
T2 chain: T1 chain with K1R, I3T, S7P, A17R, I109L, S135A, I137T
The description is as above.

Experiment [3] addresses T3, human AGR2 E60A (human, UniProt O95994 21-175).
T3 construct: Whole entry as named; also called monomeric AGR2
T3 chain: T1 chain with K1R, I3T, S7P, A17R, E40A, I109M, S135A, I137T
The experiment is described as above.

Experiment [4] deals with T4, human AGR2 WT (human, UniProt O95994 21-175).
T4 construct: also called hAGR2; recombinant human AGR2
T4 sequence: T1 chain with K1R, I3T, S7P, A17R, I109M, S135A, I137T
The experiment is described as above.

Experiment [5] has as its target T5, mouse AGR2 (mouse, UniProt O88312 21-175).
T5 construct: Whole entry as named
T5 sequence: T1 chain with I3T, T13P, A17R, K44R, K50R, I54V, N74H, I109V, I137T, L141Y
The experiment is described as above.

Experiment [6] addresses T4, human AGR2 WT. As to the kind of experiment: kinetics of Table 4, antibody immobilized, hAGR2 analyte.
Experiment [7] deals with T4, human AGR2 WT. As to the kind of experiment: kinetics, antibody immobilized, hAGR2 soluble analyte; instrument not stated.
The target in experiment [8] is T6, human AGR3 (human, UniProt Q8TD06 22-166, limits assumed).
T6 construct: Closest family member of AGR2, used as a specificity control in the ELISA
T6 sequence (looked up): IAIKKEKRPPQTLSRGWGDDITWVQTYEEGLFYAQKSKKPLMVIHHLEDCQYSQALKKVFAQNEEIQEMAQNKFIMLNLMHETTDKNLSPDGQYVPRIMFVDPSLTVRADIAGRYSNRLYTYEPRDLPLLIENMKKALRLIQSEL
As to the kind of experiment: ELISA on plate-coated antigen (1 µg/mL); antibody titrated 10 µg/mL to 0.15 ng/mL; anti-human IgG-HRP, OD 450 nm. For orientation: An ELISA detects its analyte on a solid surface through an enzyme-linked reagent.

The target of experiment [9] is T7, BSA (UniProt P02769 25-607).
T7 construct: Negative control coating in the ELISA
The description is as above.

Experiment [10] addresses T6, human AGR3. The experiment is described as above. This is another data set of the same source.
Experiment [11] deals with T7, BSA. The experiment is described as above. This is another data set of the same source.
Experiment [12] deals with T6, human AGR3. Described as above. This is another data set of the same source.
Experiment [13] concerns the target T7, BSA. The experiment is described as above. This is another data set of the same source.
Experiment [14] has as its target T6, human AGR3. The experiment is described as above. The source holds these as a separate data set.
In experiment [15] the target is T7, BSA. Described as above. This is another data set of the same source.
In experiment [16] the target is T6, human AGR3. The description is as above. The source holds these as a separate data set.
In experiment [17] the target is T7, BSA. The description is as above. The source holds these as a separate data set.
Experiment [18] deals with T6, human AGR3. The experiment is described as above. This is another data set of the same source.
Experiment [19] has as its target T7, BSA. The experiment is described as above. This is another data set of the same source.

T7 sequence (P02769 25-607 limits assumed): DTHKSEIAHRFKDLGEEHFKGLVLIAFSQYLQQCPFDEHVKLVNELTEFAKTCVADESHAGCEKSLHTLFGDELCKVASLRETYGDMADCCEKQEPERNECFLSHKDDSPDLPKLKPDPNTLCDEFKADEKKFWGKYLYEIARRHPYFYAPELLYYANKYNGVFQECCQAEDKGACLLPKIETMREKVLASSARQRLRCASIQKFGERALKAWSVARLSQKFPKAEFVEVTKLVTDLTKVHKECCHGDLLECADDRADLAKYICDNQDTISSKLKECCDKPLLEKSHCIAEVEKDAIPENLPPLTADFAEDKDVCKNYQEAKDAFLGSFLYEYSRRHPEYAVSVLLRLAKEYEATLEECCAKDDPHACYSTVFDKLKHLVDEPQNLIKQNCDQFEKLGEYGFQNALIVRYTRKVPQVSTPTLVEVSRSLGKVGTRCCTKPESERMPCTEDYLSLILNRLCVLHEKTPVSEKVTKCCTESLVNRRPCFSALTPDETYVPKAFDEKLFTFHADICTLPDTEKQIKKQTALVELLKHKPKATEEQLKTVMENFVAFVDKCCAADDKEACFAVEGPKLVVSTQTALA

B1: TH-106 IgG1-LALA humanized monoclonal antibody (antibody)
heavy: not shown
light: EIVLTQSPATLSLSPGERATLSCKASQDINSYLSWFQQKPGQAPRTLIYRANRLVDGIPARFSGSGSGQDFTLTISSLEPEDFAVYYCLQYDEFPFTFGGGTKVEIKRTVAAPSVFIFPPSDEQLKSGTASVVCLLNNFYPREAKVQWKVDNALQSGNSQESVTEQDSKDSTYSLSSTLTLSKADYEKHKVYACEVTHQGLSSPVTKSFNRGEC
Turning to B1, the EC50 in experiment [1] was 0.547 nM; in experiment [2], 0.547 nM; in [3], 0.96 nM; in experiment [4] it was 0.633 nM; in experiment [5] it was 0.313 nM. Also, the Kd in experiment [6] is under 0.15 nM; in experiment [7], 0.00327 nM. The koff in experiment [7] is 1.07e-06 s⁻¹. Besides, in experiment [7], the on-rate constant (kon) was 326000 M⁻¹ s⁻¹. In addition, the binding result in [8] and in experiment [9] was “no binding (tested: 10 µg/mL)” throughout.

B2: TH-109 IgG1-LALA humanized monoclonal antibody (antibody, V domains shown)
VH: QVQLVQSGSELKKPGASVKVSCKTSGYVFSRSWMNWVRQAPGQGLEWIGWIYPGDGDTNYNGKFKDRFVLSADKSVSTVYLQISSLKAEDTAVYFCARGGYDGSPWLSYWGQGTLVTVSS
VL: EIVLTQSPATLSLSPGERATLSCKASQDINSYLSWFQQKPGQAPRTLIYRANRLVDGIPARFSGSGSGQDFTLTISSLEPEDFAVYYCLQYDEFPFTFGGGTKVEIKR
Take B2: the EC50 was 2.31 nM in experiment [1]; 2.15 nM in experiment [2]; 3.57 nM in [3]; 2.37 nM in experiment [4]; 2.03 nM in experiment [5]. Further, the Kd in experiment [6] is under 0.15 nM; in experiment [7] it was 0.0265 nM. The same molecule showed a koff in experiment [7] of 8.74e-06 s⁻¹. In [7], this molecule registered a kon of 329000 M⁻¹ s⁻¹. The binding result in experiment [10] and in experiment [11] was “no binding (tested: 10 µg/mL)” each time.

B3: TH-106 IgG1 humanized monoclonal antibody (antibody)
heavy: not shown
light: B1 light
Turning to B3, the EC50 in [1] was found to be 0.66 nM; in experiment [2], 0.553 nM; in experiment [3], 1.1 nM; in experiment [4], 0.853 nM; in experiment [5] it was 0.3 nM. The binding result in experiment [12] and in experiment [13] was “no binding (tested: 10 µg/mL)” in each case.

B4: TH-101 IgG1-LALA humanized monoclonal antibody (antibody, V domains shown)
VH: QVQLVQSGAEVKKPGASVKVSCKTSGYVFSRSWMNWVRQAPGQGLEWIGWIYPGDGDTNYNGKFKDRVTLTADKSTSTVYMELSSLRSEDTAVYFCARGGYDGSPWLSYWGQGTLVTVSS
VL: DIQMTQSPSSLSASVGDRVTITCKASQDINSYLSWFQQKPGKAPKTLIYRANRLVDGVPSRFSGSGSGQDFTLTISSLQPEDIATYYCLQYDEFPFTFGGGTKVEIKR
On to B4, for which the EC50 in [1] amounted to 0.42 nM; in [2] it was 0.48 nM; in experiment [3] it was 1.24 nM; in experiment [4], 0.52 nM; in [5] it was 0.28 nM. Besides, the Kd in experiment [6] was under 0.15 nM; in [7] it was 0.116 nM. The off-rate (koff) in [7] is 3.52e-05 s⁻¹. The kon in experiment [7] was found to be 303000 M⁻¹ s⁻¹. The binding result in experiment [14] and in [15] was “no binding (tested: 10 µg/mL)” throughout.

B5: TH-104 IgG1-LALA humanized monoclonal antibody (antibody, V domains shown)
VH: B2 VH
VL: B4 VL
For the molecule B5, the 50% effective concentration (EC50) came out at 0.48 nM in experiment [1]; 0.44 nM in experiment [2]; 0.92 nM in experiment [3]; 0.527 nM in experiment [4]; 0.3 nM in [5]. Besides, the figures for the Kd in experiment [6] and in [7] were under 0.15 nM and 0.0278 nM, respectively. For the same molecule, the koff in experiment [7] came to 8.23e-06 s⁻¹. The kon in experiment [7] was 296000 M⁻¹ s⁻¹. Moreover, the binding result in experiment [16] and in experiment [17] was “no binding (tested: 10 µg/mL)” each time.

B6: TH-115 IgG1-LALA humanized monoclonal antibody (antibody, V domains shown)
VH: QVQLLESGGGLVKPGGSLRLSCATSGYVFSRSWMNWIRQAPGQGLEWIGWIYPGDGDTNYNGKVKDRFTLSADKAKNSVYLQMNSLRAEDTAVYFCARGGYDGSPWLSYWGQGTLVTVSS
VL: EIVLTQSPDFQSVTPKEKVTITCKASQDINSYLSWFQQKPDQSPKTLIYRANRLVDGVPSRFSGSGSGQDFTLTINSLEAEDAATYYCLQYDEFPFTFGGGTKVEIKR
Take B6: the EC50 in [1] worked out at 0.6 nM; in experiment [2] it was 0.62 nM; in experiment [3], 1.29 nM; in experiment [4], 0.813 nM; in [5], 0.5 nM. Also, the Kd in experiment [6] was under 0.15 nM; in experiment [7], 0.063 nM. In experiment [7], this molecule yielded a koff of 1.94e-05 s⁻¹. The same molecule came in with a kon in [7] of 308000 M⁻¹ s⁻¹. Besides, the binding result in experiment [18] and in [19] was “no binding (tested: 10 µg/mL)” each time.

The values above are taken from patent US20260193331A1 (THABOR THERAPEUTICS, published 2026).
